This passage reports Kd results from article PMC10786891, “Massively parallel profiling of RNA-targeting CRISPR-Cas13d”.

The chains are these.
T1: EsCas13d, nuclease-dead (Eubacterium siraeum, UniProt B0MS50, R295A;H300A;R849A;H854A)
T1 sequence: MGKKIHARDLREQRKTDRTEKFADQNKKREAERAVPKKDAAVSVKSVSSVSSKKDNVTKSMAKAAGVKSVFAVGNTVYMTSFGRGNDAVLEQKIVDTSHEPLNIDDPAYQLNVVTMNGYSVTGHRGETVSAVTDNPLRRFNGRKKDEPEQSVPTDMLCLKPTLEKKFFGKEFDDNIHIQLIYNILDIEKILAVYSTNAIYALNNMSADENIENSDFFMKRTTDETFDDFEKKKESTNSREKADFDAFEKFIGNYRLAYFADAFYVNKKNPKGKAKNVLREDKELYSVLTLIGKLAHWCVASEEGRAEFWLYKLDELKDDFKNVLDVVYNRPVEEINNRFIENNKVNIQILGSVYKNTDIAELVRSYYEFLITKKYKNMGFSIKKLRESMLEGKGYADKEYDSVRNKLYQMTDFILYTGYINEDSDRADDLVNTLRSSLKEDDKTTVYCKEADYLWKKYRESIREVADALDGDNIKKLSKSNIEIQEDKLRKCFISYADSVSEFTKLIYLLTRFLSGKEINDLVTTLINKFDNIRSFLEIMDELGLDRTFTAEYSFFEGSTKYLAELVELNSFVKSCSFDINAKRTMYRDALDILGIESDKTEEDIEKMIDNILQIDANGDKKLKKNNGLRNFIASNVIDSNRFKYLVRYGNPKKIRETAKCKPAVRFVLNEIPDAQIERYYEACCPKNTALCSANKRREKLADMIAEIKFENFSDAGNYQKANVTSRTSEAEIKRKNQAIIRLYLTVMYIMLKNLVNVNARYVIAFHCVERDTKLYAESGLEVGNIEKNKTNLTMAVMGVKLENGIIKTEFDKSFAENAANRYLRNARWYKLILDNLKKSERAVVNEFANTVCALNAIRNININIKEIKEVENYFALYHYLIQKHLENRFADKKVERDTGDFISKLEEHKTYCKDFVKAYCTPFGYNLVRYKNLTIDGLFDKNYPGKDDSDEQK

B1: target 1 U11A,A14G (mixed)
RNA 1: CACCCGUGCAAAAAUGCAGGGGUCUAAAACUGAGCGGAUAACCUCUCUAUGG
RNA 2: GGGAAUGGAUCCACAUCUACGAAUUCGUACCAUAGAGGGGAUAUCCGCUCACCGAGAUCGGAAGAGCACACGU
B2: target 1 A1U,C7G (mixed)
RNA 1: B1 RNA 1
RNA 2: B1 RNA 2 with G38A, A41U, C45G, A51U
B3: target 1 insA 3' of 21,insC 3' of 11 (mixed)
RNA 1: B1 RNA 1
RNA 2: GGGAAUGGAUCCACAUCUACGAAUUCGUACCAAUAGAGAGGUCUAUCCGCUCACCGAGAUCGGAAGAGCACACGU
B4: target 1 insA 3' of 4,insG 3' of 4 (mixed)
RNA 1: B1 RNA 1
RNA 2: GGGAAUGGAUCCACAUCUACGAAUUCGUACCAUAGAGAGGUUAUCCGCAGUCACCGAGAUCGGAAGAGCACACGU
B5: target 2 MT 5'PFS AAG 3'PFS ACC (mixed)
RNA 1: CACCCGUGCAAAAUUGCAGGGGUCUAAAACCUUCUCCAAAUUGUUUCAUCCU
RNA 2: GGGAAUGGAUCCACAUCUACGAAUUCAAGAGGAUGAAACAAUUUGGAGAAGACCAGAUCGGAAGAGCACACGU
B6: target 2 MT 5'PFS GCA 3'PFS UGC (mixed)
RNA 1: B5 RNA 1
RNA 2: B5 RNA 2 with A27G, A28C, G29A, A52U, C53G
B7: target 2 MT 5'PFS CUU 3'PFS UGU (mixed)
RNA 1: B5 RNA 1
RNA 2: B5 RNA 2 with A27C, A28U, G29U, A52U, C53G, C54U
B8: target 2 MT 5'PFS UAA 3'PFS ACC (mixed)
RNA 1: B5 RNA 1
RNA 2: B5 RNA 2 with A27U, G29A
B9: target 2 MT 5'PFS ACG 3'PFS CGA (mixed)
RNA 1: B5 RNA 1
RNA 2: B5 RNA 2 with A28C, A52C, C53G, C54A
B10: target 2 MT 5'PFS UAU 3'PFS CGU (mixed)
RNA 1: B5 RNA 1
RNA 2: B5 RNA 2 with A27U, G29U, A52C, C53G, C54U
B11: target 2 MT 5'PFS UAU 3'PFS CGG (mixed)
RNA 1: B5 RNA 1
RNA 2: B5 RNA 2 with A27U, G29U, A52C, C53G, C54G
B12: target 2 MT 5'PFS AAG 3'PFS ACG (mixed)
RNA 1: B5 RNA 1
RNA 2: B5 RNA 2 with C54G
B13: target 2 MT 5'PFS GCA 3'PFS UGA (mixed)
RNA 1: B5 RNA 1
RNA 2: B5 RNA 2 with A27G, A28C, G29A, A52U, C53G, C54A
B14: target 2 MT 5'PFS GCA 3'PFS UGU (mixed)
RNA 1: B5 RNA 1
RNA 2: B5 RNA 2 with A27G, A28C, G29A, A52U, C53G, C54U
B15: target 2 MT 5'PFS AUU 3'PFS UAA (mixed)
RNA 1: B5 RNA 1
RNA 2: B5 RNA 2 with A28U, G29U, A52U, C53A, C54A
B16: target 2 MT 5'PFS GUG 3'PFS CAU (mixed)
RNA 1: B5 RNA 1
RNA 2: B5 RNA 2 with A27G, A28U, A52C, C53A, C54U
B17: target 2 MT 5'PFS ACU 3'PFS CAG (mixed)
RNA 1: B5 RNA 1
RNA 2: B5 RNA 2 with A28C, G29U, A52C, C53A, C54G
B18: target 2 MT 5'PFS CAC 3'PFS ACU (mixed)
RNA 1: B5 RNA 1
RNA 2: B5 RNA 2 with A27C, G29C, C54U
B19: target 2 MT 5'PFS UAU 3'PFS AGC (mixed)
RNA 1: B5 RNA 1
RNA 2: B5 RNA 2 with A27U, G29U, C53G
B20: target 2 MT 5'PFS UAU 3'PFS AGA (mixed)
RNA 1: B5 RNA 1
RNA 2: B5 RNA 2 with A27U, G29U, C53G, C54A
B21: target 2 MT 5'PFS GCC 3'PFS UUC (mixed)
RNA 1: B5 RNA 1
RNA 2: B5 RNA 2 with A27G, A28C, G29C, A52U, C53U
B22: target 2 MT 5'PFS UAU 3'PFS AGU (mixed)
RNA 1: B5 RNA 1
RNA 2: B5 RNA 2 with A27U, G29U, C53G, C54U
B23: target 2 MT 5'PFS ACG 3'PFS CGC (mixed)
RNA 1: B5 RNA 1
RNA 2: B5 RNA 2 with A28C, A52C, C53G
B24: target 2 MT 5'PFS UUA 3'PFS UGC (mixed)
RNA 1: B5 RNA 1
RNA 2: B5 RNA 2 with A27U, A28U, G29A, A52U, C53G
B25: target 2 MT 5'PFS UAU 3'PFS CGA (mixed)
RNA 1: B5 RNA 1
RNA 2: B5 RNA 2 with A27U, G29U, A52C, C53G, C54A
B26: target 2 MT 5'PFS UAU 3'PFS AGG (mixed)
RNA 1: B5 RNA 1
RNA 2: B5 RNA 2 with A27U, G29U, C53G, C54G
B27: target 2 MT 5'PFS AAG 3'PFS ACA (mixed)
RNA 1: B5 RNA 1
RNA 2: B5 RNA 2 with C54A
B28: target 2 MT 5'PFS UAA 3'PFS ACA (mixed)
RNA 1: B5 RNA 1
RNA 2: B5 RNA 2 with A27U, G29A, C54A
B29: target 2 MT 5'PFS UAU 3'PFS CGC (mixed)
RNA 1: B5 RNA 1
RNA 2: B5 RNA 2 with A27U, G29U, A52C, C53G
B30: target 2 MT 5'PFS UAA 3'PFS ACG (mixed)
RNA 1: B5 RNA 1
RNA 2: B5 RNA 2 with A27U, G29A, C54G
B31: target 2 MT 5'PFS GCC 3'PFS UUG (mixed)
RNA 1: B5 RNA 1
RNA 2: B5 RNA 2 with A27G, A28C, G29C, A52U, C53U, C54G

Residue numbers refer to the chain shown, from its start. Names may count otherwise.

In the data set the target is T1, EsCas13d, nuclease-dead. The data set is described as follows: crRNA (strand 1, pre-loaded); Mg2+; 40 mM Tris-HCl pH 7.5, 150 mM NaCl, 6 mM MgCl2, 1 mM DTT, 0.1% Tween-20, 0.2 mg/ml BSA; 25 C; 10 min per concentration, then washed. Particulars: tags: His6-TwinStrep-SUMO cleaved; N-terminal SNAP kept (SNAP-Surface 488); label: 3' end held by stalled T7 RNA polymerase.
Consider B1, for which the Kd (commonly the equilibrium constant for the complex coming apart) is 43 ± 4 nM.

Regarding B2, binding was put at a Kd of 9.9 ± 0.8 nM.

B3: the Kd was approximately 80 nM.

B4 registered a Kd of 5.32 ± 0.26 nM.

Molecule B5 came in with a dissociation constant (Kd) of approximately 27 nM.

Turning to B6, the dissociation constant Kd worked out at 12.7 ± 2.3 nM.

B7 displayed a Kd of 4.26 ± 0.3 nM.

For the molecule B8, the Kd was 24 ± 9 nM.

B9: the dissociation constant (Kd) came to 8.5 ± 2.1 nM.

B10 displayed a dissociation constant (Kd) of 15.6 ± 1.8 nM. This Kd is about 1.8-fold higher than that of the molecule before.

Consider B11, for which the Kd was found to be 52 ± 11 nM.

In the case of B12, the Kd was 5.1 ± 0.9 nM. Against the preceding molecule, the Kd is about 10-fold lower.

With B13, binding was characterised by a dissociation constant (Kd) of 13 ± 4 nM.

B14 gave a Kd of 25 ± 5 nM.

In turn, B15 returned a Kd of 5.4 ± 0.8 nM.

In turn, B16 registered a Kd of 9.2 ± 0.8 nM. Compared with the last molecule, the Kd is about 1.7-fold higher.

With B17, the Kd worked out at 4.5 ± 0.5 nM.

B18 came in with a Kd of 2.7 ± 1.1 nM.

As to B19, the Kd worked out at 21 ± 2.4 nM.

B20 registered a Kd of 21.1 ± 2.7 nM.

Molecule B21 yielded a Kd of 27 ± 7 nM.

B22 had a Kd of 15.2 ± 1.6 nM.

In the case of B23, the Kd came to 8.2 ± 1.1 nM.

In turn, B24 returned a Kd of 33 ± 9 nM.

Molecule B25 had a Kd of 27 ± 1.9 nM.

On to B26, for which binding was put at a Kd of 28.1 ± 3.3 nM.

In turn, B27 registered a Kd of 5 ± 0.9 nM.

Regarding B28, the dissociation constant (Kd) was 6 ± 1.2 nM.

Regarding B29, the Kd came to 75 ± 13 nM. This Kd lies about 12-fold higher than the previous one.

Regarding B30, the Kd was 8.8 ± 2.1 nM.

Molecule B31 came in with a Kd of 15.3 ± 2.1 nM.
